The nature of this series: Hydrolysis activity for various PA-labeled sugar chains (HPLC peak area ratio, relative to M8A). The series is classed as biochemical. Particulars: 1 μM substrate, pH 5.3, 30° C. On the procedure:
(§1) Using the Endo-Om partially purified enzyme solution of the present invention, hydrolysis activity for various PA-labeled commercially available sugar chains (TaKaRa-Bio Inc.) were measured, and the results are shown in the following (Table 1) together with the measurements in a literature on Endo-M (Non Patent Literature 6). The hydrolysis activity at that time was calculated from the peak area ratio between the PA-labeled sugar chain and its hydrolysate as substrates in HPLC, and the relative activity for the various sugar chains was calculated, with the hydrolysis activity for the sugar chain with an M8A structure set at 100%.
as §1, with “Endo-Cp” for “Endo-Om”, “2)” for “1)”
as §1, with “Endo-Pa” for “Endo-Om”, “3)” for “1)”
as §1, with “Endo-Zr” for “Endo-Om”, “4)” for “1)”
Comparison of hydrolysis activity for PA-labeled sugar chains having various structures was carried out as follows. A reaction solution containing a sodium acetate buffer at final concentration of 100 mM (pH 5.3), 0.5 M of NaCl, 1 μM of any of various PA-labeled sugar chains (TaKaRa-Bio Inc.), and an Endo-Om purified enzyme solution (total volume: 10 μl) was incubated at 30° C. for 3 to 12 hours, and heated at 95° C. for 5 minutes thereby stopping the enzyme reaction. The reaction solution was subjected to HPLC, and enzymatic activity was calculated from the peak area ratio between the PA-labeled sugar chain as the substrate and its hydrolysate. The column used herein was Cosmosil 5C18-ARII (2.0.150 mm, Nacalai Tesque, Inc.), the solvents were a 0.1 M ammonium acetate buffer (pH 4.0: solvent A), a 0.1 M ammonium acetate buffer (pH 4.0), and 0.5% 1-butanol (solvent B). Linear gradient elution was carried out using the solvent B: 5%-50% at a flow rate of 0.5 ml/min over a period of 24 minutes, and detection was carried out using a fluorescence detector (excitation wavelength 320 nm, and fluorescence wavelength 400 nm). The enzymatic activity was calculated with the activity hydrolyzing 1 μmol of the PA-labeled sugar chain in 1 minute under the above-described reaction conditions as 1 Unit, and the relative activity for various sugar chains were calculated with the hydrolysis activity for the sugar chain having an M8A structure as 100%. […]

B1: Endo-Om: endo-β-N-acetylglucosaminidase from methylotrophic yeast Ogataea minuta IFO10746, amino acid sequence SEQ ID NO. 1, 772 amino acids (protein, listed as Ogataea minuta)
chain: MAQSQLLGGAVRPVFFDKLEELRRWHTQSANLSRESELDSLNVATEPFSSYERAQTGSGSRSSEPVPGDKEDPPIKLMVCHDFKGGYQDYEDAQPLGYFPHPTGSRYFLQYPQLIDQFVYFSHHRVTVPPVNWINFCHRNGIKCFGTVIFEGNASKDFEELDRLVSRDEKGDFVFVDALIKLAAHYGFDGYLLNIETTFSNTKIAADLEPFAEQLKSGLHCLDSKNELIWYDSYVFPANKVSYTNGVTESNYNFFSLSDAFFSNYWWNIKNLQENIKNVGVLGVQKKIYVGYDVWGRGTLVGKGGFDSSLACKMIAKFKSNVALFAPAWTYESLGPKDFNQNDARFWIGLFENESSISSTVPPHSSAVYKINESSFIFYTNFSSGEGNRFFSKGSEVYRKNWVNGSLQFDLPIDLHRKDKNGLQWALDKSDAFHGGACLEIKYSEIKDENGYQIFNNQMVSDFTLFNFTKECHFPTVNVKVTYKLNHKTKSTFKIKIKYIIERRFRSVQTVRTGYLTIPLLSTSGKWFTVEESFQINLQTSHEYIVLESAHVTYDEDRSADSFFRSYIVEDSAITSVIDNEEYEKLINSEIYNDDEDEDWILVPSDVSISSSESQSNDSKTQYLGRKLFGNKSTPKTRTLEGTAPLLRIGEFAIISANNYPSSNFLAVTSVKSIESSRLEGDSLVLLNWQVGEGHQKGVCYYIIYVNGAVVGLSVAPKFIYQDTELASENSASARSNYKKSGLGSSSDRKSKVRVDSVDKLGNVFTGSEVWV
For the molecule B1, the “Relative activity (hydrolysis activity for PA-labeled sugar chain)” value (“Relative activity” for short) (substrate drawing 1/drawing 14/drawing 27/drawing 40 (M3B structure), M8A = 100%) is 55.9%; the “Relative activity” value (substrate drawing 2/drawing 15/drawing 28/drawing 41 (M5A structure per text), M8A = 100%) is given as 13.7%; the “Relative activity” value (substrate drawing 4/drawing 17/drawing 30/drawing 43 (high-mannose type M8A-PA sugar chain, set at 100%)) amounted to 100%; the “Relative activity” value (substrate drawing 5/drawing 18/drawing 31/drawing 44 (M9A structure per text), M8A = 100%) was found to be 81.3%; the “Relative activity” value (substrate drawing 6/drawing 19/drawing 32/drawing 45, M8A = 100%) is 0.8%; the “Relative activity” value (substrate drawing 7/drawing 20/drawing 33/drawing 46, M8A = 100%) was 5.9%. Further, the “Relative activity” value is, setting by setting: (substrate drawing 8/drawing 21/drawing 34/drawing 47, M8A = 100%) 1.6%; (substrate drawing 9/drawing 22/drawing 35/drawing 48, M8A = 100%) 4.6%.
